Laboratory results: publication PMC9482650, “Quantitative fragmentomics allow affinity mapping of interactomes” (Nature Communications, 2022)

Experiments:
Experiment in all cases: holdup assay
Design in all cases: key: below the threshold = too weak to quantify, mostly under pKd 3.1 to 4
RHPN1, Q8TCX5 = biological target: T1, RHPN1, Q8TCX5
T1 sequence (Q8TCX5 508-602, limits assumed, looked up): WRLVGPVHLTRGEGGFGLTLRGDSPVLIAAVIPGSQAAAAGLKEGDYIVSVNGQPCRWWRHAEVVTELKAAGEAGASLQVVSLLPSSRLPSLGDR

GRIP2_5, Q9C0E4 = biological target: GRIP2_5, Q9C0E4
MAGI1_1, Q96QZ7 = biological target: MAGI1_1, Q96QZ7
HTRA4, P83105 = biological target: T2, HTRA4, P83105
T2 sequence (P83105 378-476, limits assumed, looked up): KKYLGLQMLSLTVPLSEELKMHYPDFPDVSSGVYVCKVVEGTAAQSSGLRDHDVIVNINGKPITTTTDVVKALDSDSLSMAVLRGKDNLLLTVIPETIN

MAGI2_4, Q86UL8 = biological target: MAGI2_4, Q86UL8
MAGI1_2, Q96QZ7 = biological target: MAGI1_2, Q96QZ7
GRIP1_5, Q9Y3R0 = biological target: T3, GRIP1_5, Q9Y3R0
T3 sequence (Q9Y3R0 568-668, limits assumed, looked up): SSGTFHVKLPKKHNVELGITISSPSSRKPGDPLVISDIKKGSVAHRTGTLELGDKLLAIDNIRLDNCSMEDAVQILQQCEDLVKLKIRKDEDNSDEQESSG

LDB3, O75112 = biological target: LDB3, O75112
Inadl_5, Q8NI35 = biological target: Inadl_5, Q8NI35
LNX2_2, Q8N448 = biological target: T4, LNX2_2, Q8N448
T4 sequence (Q8N448 334-432, limits assumed, looked up): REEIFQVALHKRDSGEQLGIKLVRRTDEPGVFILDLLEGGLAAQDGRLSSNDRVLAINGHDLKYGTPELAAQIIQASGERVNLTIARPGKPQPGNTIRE

GRIP1_3, Q9Y3R0 = biological target: T5, GRIP1_3, Q9Y3R0
T5 sequence (Q9Y3R0 247-346, limits assumed, looked up): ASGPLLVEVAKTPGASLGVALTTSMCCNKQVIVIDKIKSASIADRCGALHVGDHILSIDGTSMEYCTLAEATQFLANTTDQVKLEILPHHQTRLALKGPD

NHERF3_1, Q5T2W1 = biological target: T6, NHERF3_1, Q5T2W1
T6 sequence (Q5T2W1 4-100, limits assumed, looked up): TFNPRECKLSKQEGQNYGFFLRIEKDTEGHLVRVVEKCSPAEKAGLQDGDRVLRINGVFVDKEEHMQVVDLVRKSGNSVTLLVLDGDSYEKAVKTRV

FRMPD2_3, Q68DX3 = biological target: FRMPD2_3, Q68DX3
TJP2_1, Q9UDY2 = biological target: TJP2_1, Q9UDY2
Inadl_2, Q8NI35 = biological target: Inadl_2, Q8NI35
SNTG1, Q9NSN8 = biological target: T7, SNTG1, Q9NSN8
T7 sequence (Q9NSN8 52-150, limits assumed, looked up): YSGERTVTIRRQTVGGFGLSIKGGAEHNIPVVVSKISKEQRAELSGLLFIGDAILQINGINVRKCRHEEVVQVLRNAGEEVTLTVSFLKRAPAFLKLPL

APBA2_1, Q99767 = biological target: T8, APBA2_1, Q99767
T8 sequence (Q99767 563-664, limits assumed, looked up): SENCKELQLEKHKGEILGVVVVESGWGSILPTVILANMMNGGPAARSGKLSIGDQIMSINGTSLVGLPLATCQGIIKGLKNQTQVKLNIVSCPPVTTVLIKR

DLG4_1, P78352 = biological target: DLG4_1, P78352
DLG3_1, Q92796 = biological target: T9, DLG3_1, Q92796
T9 sequence (Q92796 125-227, limits assumed, looked up): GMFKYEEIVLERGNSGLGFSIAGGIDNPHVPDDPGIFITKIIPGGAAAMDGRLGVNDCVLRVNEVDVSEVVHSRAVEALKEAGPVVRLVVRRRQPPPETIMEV

ARHGEF11, O15085 = biological target: T10, ARHGEF11, O15085
T10 sequence (O15085 42-136, limits assumed, looked up): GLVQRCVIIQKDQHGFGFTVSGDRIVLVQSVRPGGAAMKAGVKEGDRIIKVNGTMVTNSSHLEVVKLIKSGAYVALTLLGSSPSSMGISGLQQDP

MAGI2_6, Q86UL8 = biological target: MAGI2_6, Q86UL8
Inadl_6, Q8NI35 = biological target: Inadl_6, Q8NI35
Inadl_4, Q8NI35 = biological target: Inadl_4, Q8NI35
FRMPD4, Q14CM0 = biological target: FRMPD4, Q14CM0
DLG1_1, Q12959 = biological target: DLG1_1, Q12959
DVL3, Q92997 = biological target: T11, DVL3, Q92997
T11 sequence (Q92997 244-331, limits assumed, looked up): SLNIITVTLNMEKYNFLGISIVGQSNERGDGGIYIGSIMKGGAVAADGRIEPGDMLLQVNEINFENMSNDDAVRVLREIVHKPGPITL

PDZRN4_1, Q6ZMN7 = biological target: PDZRN4_1, Q6ZMN7
[1] = plain residues with an end cap or a label only (N-terminal biotin on a linker: ahx)
[2] = plain residues with an end cap or a label only (N-terminal biotin on a linker: ado-ado)
[3] = plain residues with an end cap or a label only (N-terminal biotin on a linker: ttds)

Chain of Inadl_6, Q8NI35 (Q8NI35 1058-1167): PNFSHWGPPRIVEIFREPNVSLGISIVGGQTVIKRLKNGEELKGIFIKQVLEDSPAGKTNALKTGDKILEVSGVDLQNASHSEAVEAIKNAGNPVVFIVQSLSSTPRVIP
Chain of FRMPD4, Q14CM0 (Q14CM0 67-160): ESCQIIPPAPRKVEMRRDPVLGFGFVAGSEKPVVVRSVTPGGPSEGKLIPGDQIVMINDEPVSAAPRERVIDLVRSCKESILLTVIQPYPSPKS
Chain of Inadl_5, Q8NI35 (Q8NI35 673-780): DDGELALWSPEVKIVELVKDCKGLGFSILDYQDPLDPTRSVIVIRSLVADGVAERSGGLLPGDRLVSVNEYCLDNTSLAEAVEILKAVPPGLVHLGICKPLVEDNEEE
Chain of Inadl_2, Q8NI35 (Q8NI35 238-335): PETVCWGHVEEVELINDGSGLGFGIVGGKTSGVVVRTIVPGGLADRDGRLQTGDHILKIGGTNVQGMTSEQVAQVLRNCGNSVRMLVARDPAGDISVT
Chain of MAGI1_1, Q96QZ7 (Q96QZ7 1-106): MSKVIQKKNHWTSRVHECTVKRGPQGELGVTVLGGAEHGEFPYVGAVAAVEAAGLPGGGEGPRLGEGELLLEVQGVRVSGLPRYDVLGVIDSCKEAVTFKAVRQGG
Chain of MAGI2_4, Q86UL8 (Q86UL8 772-865): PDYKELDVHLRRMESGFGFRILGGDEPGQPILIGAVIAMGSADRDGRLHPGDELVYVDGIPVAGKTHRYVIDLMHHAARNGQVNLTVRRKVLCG
Chain of PDZRN4_1, Q6ZMN7 (Q6ZMN7 213-318): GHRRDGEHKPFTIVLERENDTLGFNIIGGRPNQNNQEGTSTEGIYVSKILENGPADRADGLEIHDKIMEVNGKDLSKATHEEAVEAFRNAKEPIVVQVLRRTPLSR
Chain of MAGI1_2, Q96QZ7 (Q96QZ7 456-580): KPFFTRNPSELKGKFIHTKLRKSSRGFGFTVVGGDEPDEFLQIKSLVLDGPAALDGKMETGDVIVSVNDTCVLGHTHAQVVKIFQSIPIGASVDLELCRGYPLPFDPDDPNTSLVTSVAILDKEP
Chain of DLG4_1, P78352 (P78352 62-152): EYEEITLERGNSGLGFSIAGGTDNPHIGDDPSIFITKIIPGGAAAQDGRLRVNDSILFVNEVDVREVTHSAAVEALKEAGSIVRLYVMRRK
Chain of MAGI2_6, Q86UL8 (Q86UL8 1141-1229): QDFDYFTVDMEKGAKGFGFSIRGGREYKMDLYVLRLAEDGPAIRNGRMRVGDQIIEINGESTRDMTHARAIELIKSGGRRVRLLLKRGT
Chain of TJP2_1, Q9UDY2 (Q9UDY2 24-128): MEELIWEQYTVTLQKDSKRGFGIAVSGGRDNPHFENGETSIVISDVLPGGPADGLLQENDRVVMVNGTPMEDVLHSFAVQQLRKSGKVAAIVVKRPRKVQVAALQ
Chain of FRMPD2_3, Q68DX3 (Q68DX3 1073-1166): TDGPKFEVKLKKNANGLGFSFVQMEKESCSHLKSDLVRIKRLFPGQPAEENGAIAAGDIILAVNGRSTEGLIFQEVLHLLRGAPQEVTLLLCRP
Chain of GRIP2_5, Q9C0E4 (Q9C0E4 544-642): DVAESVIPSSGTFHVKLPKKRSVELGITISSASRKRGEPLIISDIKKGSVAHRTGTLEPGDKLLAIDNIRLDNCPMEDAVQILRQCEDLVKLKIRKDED
Chain of LDB3, O75112 (O75112 1-94): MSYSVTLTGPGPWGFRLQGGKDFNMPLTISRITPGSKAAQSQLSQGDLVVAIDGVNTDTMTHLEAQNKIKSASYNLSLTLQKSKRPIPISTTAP
Chain of Inadl_4, Q8NI35 (Q8NI35 547-651): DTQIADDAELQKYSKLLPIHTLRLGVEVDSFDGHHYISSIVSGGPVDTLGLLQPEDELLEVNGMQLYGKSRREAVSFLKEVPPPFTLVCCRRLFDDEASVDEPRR

Binder: TIVSWPGTFL [LNX1, Q8TBB1]
- pKd (RHPN1, Q8TCX5; [1]): 4.17
- pKd (GRIP2_5, Q9C0E4; [1]): below the threshold
- pKd (MAGI1_1, Q96QZ7; [1]): below the threshold
- pKd (HTRA4, P83105; [1]): 4
- pKd (MAGI2_4, Q86UL8; [1]): below the threshold
- pKd (MAGI1_2, Q96QZ7; [1]): below the threshold
- pKd (GRIP1_5, Q9Y3R0; [1]): below the threshold
- pKd (LDB3, O75112; [1]): below the threshold
- pKd (Inadl_5, Q8NI35; [1]): below the threshold
- pKd (LNX2_2, Q8N448; [1]): below the threshold
- pKd (GRIP1_3, Q9Y3R0; [1]): below the threshold
- pKd (NHERF3_1, Q5T2W1; [1]): 5.34
- pKd (FRMPD2_3, Q68DX3; [1]): below the threshold
- pKd (TJP2_1, Q9UDY2; [1]): below the threshold
- pKd (Inadl_2, Q8NI35; [1]): below the threshold
- pKd (SNTG1, Q9NSN8; [1]): below the threshold
- pKd (APBA2_1, Q99767; [1]): below the threshold
- pKd (DLG4_1, P78352; [1]): below the threshold
- pKd (DLG3_1, Q92796; [1]): below the threshold
- pKd (ARHGEF11, O15085; [1]): below the threshold
- pKd (MAGI2_6, Q86UL8; [1]): 3.67
- pKd (Inadl_6, Q8NI35; [1]): 4.1
- pKd (Inadl_4, Q8NI35; [1]): below the threshold
- pKd (FRMPD4, Q14CM0; [1]): 3.73
- pKd (DLG1_1, Q12959; [1]): below the threshold
- pKd (DVL3, Q92997; [1]): below the threshold
- pKd (PDZRN4_1, Q6ZMN7; [1]): 4.16

Binder: FVHPILQSAV [PRKCA, P17252]
- pKd (RHPN1, Q8TCX5; [2]): 4.18
- pKd (GRIP2_5, Q9C0E4; [2]): below the threshold
- pKd (MAGI1_1, Q96QZ7; [2]): below the threshold
- pKd (HTRA4, P83105; [2]): below the threshold
- pKd (MAGI2_4, Q86UL8; [2]): below the threshold
- pKd (MAGI1_2, Q96QZ7; [2]): 3.73
- pKd (GRIP1_5, Q9Y3R0; [2]): below the threshold
- pKd (LDB3, O75112; [2]): below the threshold
- pKd (Inadl_5, Q8NI35; [2]): below the threshold
- pKd (LNX2_2, Q8N448; [2]): below the threshold
- pKd (GRIP1_3, Q9Y3R0; [2]): below the threshold
- pKd (NHERF3_1, Q5T2W1; [2]): 4.82
- pKd (FRMPD2_3, Q68DX3; [2]): below the threshold
- pKd (TJP2_1, Q9UDY2; [2]): below the threshold
- pKd (Inadl_2, Q8NI35; [2]): below the threshold
- pKd (SNTG1, Q9NSN8; [2]): 4.35
- pKd (APBA2_1, Q99767; [2]): below the threshold
- pKd (DLG4_1, P78352; [2]): 4.07
- pKd (DLG3_1, Q92796; [2]): 3.49
- pKd (ARHGEF11, O15085; [2]): 4.17
- pKd (MAGI2_6, Q86UL8; [2]): 3.66
- pKd (Inadl_6, Q8NI35; [2]): below the threshold
- pKd (Inadl_4, Q8NI35; [2]): below the threshold
- pKd (FRMPD4, Q14CM0; [2]): below the threshold
- pKd (DLG1_1, Q12959; [2]): 3.81
- pKd (DVL3, Q92997; [2]): below the threshold
- pKd (PDZRN4_1, Q6ZMN7; [2]): 3.92

Binder: QFQYAKESYI [TAGAP, Q8N103]
- pKd (RHPN1, Q8TCX5; [3]): 4.68
- pKd (GRIP2_5, Q9C0E4; [3]): below the threshold
- pKd (MAGI1_1, Q96QZ7; [3]): below the threshold
- pKd (HTRA4, P83105; [3]): below the threshold
- pKd (MAGI2_4, Q86UL8; [3]): below the threshold
- pKd (MAGI1_2, Q96QZ7; [3]): below the threshold
- pKd (GRIP1_5, Q9Y3R0; [3]): below the threshold
- pKd (LDB3, O75112; [3]): below the threshold
- pKd (Inadl_5, Q8NI35; [3]): below the threshold
- pKd (LNX2_2, Q8N448; [3]): below the threshold
- pKd (GRIP1_3, Q9Y3R0; [3]): below the threshold
- pKd (NHERF3_1, Q5T2W1; [3]): 5.08
- pKd (FRMPD2_3, Q68DX3; [3]): below the threshold
- pKd (TJP2_1, Q9UDY2; [3]): 4.43
- pKd (Inadl_2, Q8NI35; [3]): below the threshold
- pKd (SNTG1, Q9NSN8; [3]): 4.53
- pKd (APBA2_1, Q99767; [3]): below the threshold
- pKd (DLG4_1, P78352; [3]): 3.9
- pKd (DLG3_1, Q92796; [3]): below the threshold
- pKd (ARHGEF11, O15085; [3]): below the threshold
- pKd (MAGI2_6, Q86UL8; [3]): 3.99
- pKd (Inadl_6, Q8NI35; [3]): 4.06
- pKd (Inadl_4, Q8NI35; [3]): below the threshold
- pKd (FRMPD4, Q14CM0; [3]): below the threshold
- pKd (DLG1_1, Q12959; [3]): 4.16
- pKd (DVL3, Q92997; [3]): below the threshold
- pKd (PDZRN4_1, Q6ZMN7; [3]): 3.96

Binder: SRRPRTETQV [HPV31-E6, P17386]
- pKd (RHPN1, Q8TCX5; [3]): 3.74
- pKd (GRIP2_5, Q9C0E4; [3]): below the threshold
- pKd (MAGI1_1, Q96QZ7; [3]): below the threshold
- pKd (HTRA4, P83105; [3]): below the threshold
- pKd (MAGI2_4, Q86UL8; [3]): 4.48
- pKd (MAGI1_2, Q96QZ7; [3]): 5.54
- pKd (GRIP1_5, Q9Y3R0; [3]): below the threshold
- pKd (LDB3, O75112; [3]): below the threshold
- pKd (Inadl_5, Q8NI35; [3]): below the threshold
- pKd (LNX2_2, Q8N448; [3]): below the threshold
- pKd (GRIP1_3, Q9Y3R0; [3]): below the threshold
- pKd (NHERF3_1, Q5T2W1; [3]): 4.32
- pKd (FRMPD2_3, Q68DX3; [3]): below the threshold
- pKd (TJP2_1, Q9UDY2; [3]): 3.66
- pKd (Inadl_2, Q8NI35; [3]): below the threshold
- pKd (SNTG1, Q9NSN8; [3]): 4.23
- pKd (APBA2_1, Q99767; [3]): below the threshold
- pKd (DLG4_1, P78352; [3]): 5.02
- pKd (DLG3_1, Q92796; [3]): 4.44
- pKd (ARHGEF11, O15085; [3]): 3.58
- pKd (MAGI2_6, Q86UL8; [3]): below the threshold
- pKd (Inadl_6, Q8NI35; [3]): below the threshold
- pKd (Inadl_4, Q8NI35; [3]): below the threshold
- pKd (FRMPD4, Q14CM0; [3]): below the threshold
- pKd (DLG1_1, Q12959; [3]): 5.16
- pKd (DVL3, Q92997; [3]): below the threshold
- pKd (PDZRN4_1, Q6ZMN7; [3]): 4.19
